Measurements reported in US20150328292A1, “CASPASE POLYPEPTIDES HAVING MODIFIED ACTIVITY AND USES THEREOF” (BELLICUM PHARMACEUTICALS, INC., priority 2014, published 2015).
Residue numbers refer to the chain shown, from its start. In names and notes the source's numbering stands.

B1: N405A: chimeric modified caspase-9 polypeptide variant (protein, UniProt P55211 1-416, looked up, variant N405A)
chain: MDEADRRLLRRCRLRLVEELQVDQLWDALLSRELFRPHMIEDIQRAGSGSRRDQARQLIIDLETRGSQALPLFISCLEDTGQDMLASFLRTNRQAAKLSKPTLENLTPVVLRPEIRKPEVLRPETPRPVDIGSGGFGDVGALESLRGNADLAYILSMEPCGHCLIINNVNFCRESGLRTRTGSNIDCEKLRRRFSSLHFMVEVKGDLTAKKMVLALLELAQQDHGALDCCVVVILSHGCQASHLQFPGAVYGTDGCPVSVEKIVNIFNGTSCPSLGGKPKLFFIQACGGEQKDHGFEVASTSPEDESPGSNPEPDATPFQEGLRTFDQLDAISSLPTPSDIFVSYSTFPGFVSWRDPKSGSWYVETLDDIFEQWAHSEDLQSLLLRVANAVSVKGIYKQMPGCFAFLRKKLFFKTS
modifications: chimeric, fused to FKBP12v36
notes: chimeric modified caspase-9 polypeptide variant
B2: G402I: chimeric modified caspase-9 polypeptide variant (protein, UniProt P55211 1-416, looked up, variant G402I)
chain: B1 chain with G402I, A405N
modifications: chimeric, fused to FKBP12v36
notes: as for B1
B3: D315A-D330A: chimeric modified caspase-9 polypeptide double mutant (protein, UniProt P55211 1-416, looked up, variant D315A D330A)
chain: B1 chain with D315A, D330A, A405N
modifications: chimeric, fused to FKBP12v36
notes: chimeric modified caspase-9 polypeptide double mutant
B4: D315A: chimeric modified caspase-9 polypeptide variant (protein, UniProt P55211 1-416, looked up, variant D315A)
chain: B1 chain with D315A, A405N
modifications: chimeric, fused to FKBP12v36
notes: as for B1
B5: N405F: chimeric modified caspase-9 polypeptide variant (protein, UniProt P55211 1-416, looked up, variant N405F)
chain: B1 chain with A405F
modifications: chimeric, fused to FKBP12v36
notes: as for B1
B6: N405T: chimeric modified caspase-9 polypeptide variant (protein, UniProt P55211 1-416, looked up, variant N405T)
chain: B1 chain with A405T
modifications: chimeric, fused to FKBP12v36
notes: as for B1
B7: G402Q: chimeric modified caspase-9 polypeptide variant (protein, UniProt P55211 1-416, looked up, variant G402Q)
chain: B1 chain with G402Q, A405N
modifications: chimeric, fused to FKBP12v36
notes: as for B1
B8: ^316ATPF^319AVPI: caspase-9 with ATPF tetrapeptide replaced by SMAC/DIABLO AVPI (protein, UniProt P55211 1-416, looked up, variant T317V F319I)
chain: B1 chain with T317V, F319I, A405N
B9: C403P: chimeric modified caspase-9 polypeptide variant (protein, UniProt P55211 1-416, looked up, variant C403P)
chain: B1 chain with C403P, A405N
modifications: chimeric, fused to FKBP12v36
notes: as for B1
B10: ^402GCFNF^406ISAQT: caspase-9 with 402-406 residues replaced by those of Caspase-10 (protein, UniProt P55211 1-416, looked up, variant G402I C403S F404A N405Q F406T)
chain: B1 chain with G402I, C403S, F404A, A405Q, F406T
modifications: residues from caspase-10
B11: G402Y: chimeric modified caspase-9 polypeptide variant (protein, UniProt P55211 1-416, looked up, variant G402Y)
chain: B1 chain with G402Y, A405N
modifications: chimeric with dimerization domain
notes: as for B1
B12: D327G: chimeric modified caspase-9 polypeptide variant (protein)
chain: VDGFGDVGALESLRGNADLAYILSMEPCGHCLIINNVNFCRESGLRTRTGSNIDCEKLRRRFSSLHFMVEVKGDLTAKKMVLALLELARQDHGALDCCVVVILSHGCQASHLQFPGAVYGTDGCPVSVEKIVNIFNGTSCPSLGGKPKLFFIQACGGEQKDHGFEVASTSPEDESPGSNPEPDATPFQEGLRTFGQLDAISSLPTPSDIFVSYSTFPGFVSWRDPKSGSWYVETLDDIFEQWAHSEDLQSLLLRVANAVSVKGIYKQMPGCFNFLRKKLFFKTSASRA
B13: D327K: chimeric modified caspase-9 polypeptide variant (protein)
chain: B12 chain with G195K
B14: A331K: chimeric modified caspase-9 polypeptide variant (protein)
chain: B12 chain with G195D, A199K
B15: T317C: chimeric modified caspase-9 polypeptide variant (protein)
chain: B12 chain with T185C, G195D
B16: Q328K: chimeric modified caspase-9 polypeptide variant (protein)
chain: B12 chain with G195D, Q196K
B17: L329K: chimeric modified caspase-9 polypeptide variant (protein)
chain: B12 chain with G195D, L197K
B18: L329G: chimeric modified caspase-9 polypeptide variant (protein)
chain: B12 chain with G195D, L197G
B19: F326K: chimeric modified caspase-9 polypeptide variant (protein)
chain: B12 chain with F194K, G195D
B20: Q328R: chimeric modified caspase-9 polypeptide variant (protein)
chain: B12 chain with G195D, Q196R
B21: D327R: chimeric modified caspase-9 polypeptide variant (protein)
chain: B12 chain with G195R

System: HEK293T/16 cells
Assay: SEAP reporter-based surrogate killing assay (basal activity and AP1903 IC50)
Assay type: cell-based, human
Conditions: AP1903-independent SEAP activity, vs wild type
Method: FIG. 45 provides a schematic of an analysis of SEAP assays. […] of the mixture was seeded onto each well of a 96-well plate. […] For the assay, 4-methylumbelliferyl phosphate substrate was hydrolyzed by SEAP to 4-methylumbelliferon, a metabolite that can be excited with 364 nm and detected with an emission filter of 448 nm. Since SEAP is used as a marker for cell viability, reduced SEAP reading corresponds with increased icaspase-9 activities.
Early passage HEK293T/16 cells (ATCC, Manassas, Va.) were maintained in IMDM, GlutaMAX™ (Life Technologies, Carlsbad, Calif.) supplemented with 10% FBS, 100 U/mL penicillin, and 100 […] until transfection in a humidified, 37° C., 5% CO2/95% air atmosphere. Cells in logarithmic-phase growth were transiently transfected with 800 ng to 2 μg of expression plasmid encoding iCasp9 mutants and 500 ng of an expression plasmid encoding SRα promoter driven SEAP per million cells in 15-mL conical tubes. […] GeneJammer® Transfection Reagent at a ratio of 3 μl per ug of plasmid DNA was used to transiently transfect HEK293T/16 cells in the absence of antibiotics. 100 μl or 2 mL of the transfection mixture was added to each well in 96-well or 6-well plate, respectively.
Briefly, after 65° C. heat denaturation for 45 minutes to reduce background caused by endogenous (and serum-derived) alkaline phosphatases that are sensitive to heat, 5 μl of supernatants was added to 95 μl of PBS and added to 100 μl of substrate buffer, containing 1 μl of 100 mM 4-methylumbelliferyl phosphate (4-MUP; Sigma, St. Louis, Mo.) re-suspended in 2 M diethanolamine. Hydrolysis of 4-MUP by SEAP produces a fluorescent […] with excitation/emission (355/460 nm), which can be easily measured. Assays were performed in black opaque 96-well plates to minimize fluorescence leakage between wells (FIG. 45).

| Molecule | basal activity / basal signaling (in words) |
| --- | --- |
| B1 | no effect |
| B2 | catalytically inactive |
| B3 | inactive |
| B4 | reduced basal activity |
| B5 | lowered basal activity |
| B6 | increased basal activity |
| B7 | catalytically inactive |
| B8 | no effect |
| B9 | catalytically inactive |
| B10 | reduced basal activity |
| B11 | catalytically inactive |
| B12 | did not lower basal activity |
| B13 | did not lower basal activity |
| B14 | did not lower basal activity |
| B15 | no effect |
| B16 | did not lower basal activity |
| B17 | did not lower basal activity |
| B18 | did not lower basal activity |
| B19 | did not lower basal activity |
| B20 | did not lower basal activity |
| B21 | did not lower basal activity |
